Values quoted from earlier work, collected in PMC11271873.

What was measured:
Conditions in all cases: free peptide
[1] = test system: Cterm (position 2, ----KK-----)
[2] = test system: Nterm (position 1, -----KK----)
[3] = test system: Nterm (position 1, -----KKK---)
[4] = test system: Cterm (position 3, ---KKK-----)

| Substance | pKa [1] | pKa [2] | pKa [3] | pKa [4] |
| --- | --- | --- | --- | --- |
| Lys-Lys (di-lysine) (synthetic) | 3,01 | 7,53 | – | – |
| Lys-Lys-Lys (tri-lysine) (synthetic) | – | – | 7,34 | 3,08 |
